Data as given in paper PMC4858563.

Molecular target: Tula virus (TULV) Gn glycoprotein on virions (Tula virus (TULV), strain Moravia)
Assay: cryo-EM structure

**Q.** How did the stoichiometry N turn out when “Tula virus (TULV) Gn glycoprotein on virions (natural protein)” was run?
**A.** 4
